Experiment [1] addresses EGF receptor on Swiss mouse 3T3 cells (mouse (endogenous in Swiss 3T3)) (UniProt Q01279). Nature of the experiment: radioligand binding.
In experiment [2] the target is PDGF receptor on Swiss mouse 3T3 cells (mouse (endogenous in Swiss 3T3)) (UniProt P05622). Nature of the experiment: radioligand binding.
Sequence of UniProt P05622 (P05622 32-1098): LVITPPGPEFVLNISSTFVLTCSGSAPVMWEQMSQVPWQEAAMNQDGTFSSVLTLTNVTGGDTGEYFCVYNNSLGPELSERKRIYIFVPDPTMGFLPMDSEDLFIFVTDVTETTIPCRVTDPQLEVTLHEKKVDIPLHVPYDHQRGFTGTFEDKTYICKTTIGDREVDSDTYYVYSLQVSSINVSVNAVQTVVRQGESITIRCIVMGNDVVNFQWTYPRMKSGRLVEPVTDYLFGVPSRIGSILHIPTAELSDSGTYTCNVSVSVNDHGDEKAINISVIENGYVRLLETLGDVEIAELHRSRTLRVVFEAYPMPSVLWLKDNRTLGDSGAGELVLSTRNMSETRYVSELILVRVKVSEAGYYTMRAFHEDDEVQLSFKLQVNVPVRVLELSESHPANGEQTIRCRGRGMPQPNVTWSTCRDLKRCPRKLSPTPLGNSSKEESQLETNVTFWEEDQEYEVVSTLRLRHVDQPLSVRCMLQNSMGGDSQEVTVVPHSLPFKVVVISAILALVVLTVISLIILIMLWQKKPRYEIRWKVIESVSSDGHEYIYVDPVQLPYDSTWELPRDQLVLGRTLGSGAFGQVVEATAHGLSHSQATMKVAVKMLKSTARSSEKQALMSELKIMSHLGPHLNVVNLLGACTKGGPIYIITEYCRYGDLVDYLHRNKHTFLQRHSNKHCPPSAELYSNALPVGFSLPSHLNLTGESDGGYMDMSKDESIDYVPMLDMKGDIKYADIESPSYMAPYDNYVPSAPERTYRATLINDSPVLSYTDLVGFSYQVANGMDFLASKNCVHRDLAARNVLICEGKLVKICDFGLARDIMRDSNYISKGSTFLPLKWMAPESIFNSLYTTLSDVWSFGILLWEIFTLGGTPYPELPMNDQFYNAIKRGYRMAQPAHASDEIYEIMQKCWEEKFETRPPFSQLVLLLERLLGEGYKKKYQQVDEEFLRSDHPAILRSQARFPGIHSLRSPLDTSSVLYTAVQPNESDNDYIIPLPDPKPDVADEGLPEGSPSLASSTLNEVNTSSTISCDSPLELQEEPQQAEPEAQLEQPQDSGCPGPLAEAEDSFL

One may read the EC50 as the midpoint of the concentration-response curve. High values mean a need for much substance, low ones an effect from little substance. In experiment [1], 125I-epidermal growth factor (ligand) had a % of prebound ligand removed by 3 min 0.1% acetic acid of 78%; an EC50 of 1.3 nM; a binding to acid-treated cultures, % of binding to untreated cultures of 101%; a decrease in 125I-EGF binding after preincubation with 2 ng/ml PDGF of 60%. In experiment [1], this substance came in with a half-maximal binding after preincubation with 0.5 ng/ml PDGF of 1.6 nM and a half-maximal binding after preincubation with 10 ng/ml PDGF of 2 nM.
As for “125I-platelet-derived growth factor (from UniProt P04085 87-211; P01127 82-190) (ligand)”, the binding to acid-treated cultures, % of binding to untreated cultures in experiment [2] amounted to 103%.

(Values after publication PMC2112417.)
